As usually defined, the EC50 (read off the curve) is the midpoint of the concentration-response curve. High values mean lower potency in that assay, low ones higher potency in that assay. What is called Kd is a measure of binding affinity in units of concentration. Lower therefore signals a tighter complex. What is called koff is the rate constant with which the complex falls apart. A word on the kon: it is the rate constant with which the complex forms. High values mean faster complex formation, low ones slower complex formation.

Some results are limits rather than exact numbers.

These results are taken from patent US20190071518A1 (PIERRE FABRE MEDICAMENT, published 2019).

Test [1] deals with T1, ADAM17 on the surface of human tumour cells (A431 substrate-Nluc cells; NCI-H1299) (human, UniProt P78536 215-824).
T1 construct: Endogenous ADAM17 of human tumour cell lines; also called ADAM17 at the plasma membrane; tumour cell line NCI-H1299
The test can be described thus: flow cytometry on the tumour cell line NCI-H1299, antibody titration.

The target of test [2] is murine/human chimeric ADAM17 M1-602H603-671 (p-c-d-mpd (Nter)-MPD (Cter)) human Fc fusion (murine; human) (UniProt Q9Z0F8). As to the kind of experiment: SPR (Biacore X100), about 700 RU m1022C3 captured, analyte 250 nM, FC2-FC1.
Test [3] deals with murine ADAM17 M1-671 (p-c-d-mpd) human Fc fusion (murine; human) (UniProt Q9Z0F8). Described as above.
Test [4] addresses ADAM17 fragments and chimeric constructs giving the positive response. The description is as above.
Test [5] addresses soluble ADAM17 (extracellular domain of ADAM-17) (human, UniProt P78536 215-671). The test can be described thus: SPR (Biacore), antibody captured on rabbit anti-mouse IgG, soluble ADAM17 400-12.5 nM, 1:1 Langmuir fit. The protocol:
The antibody (ligand) was bound to the second flowcell of a Biacore CM5 sensor chip (GE Healthcare) activated on both flowcells with a Rabbit anti-Mouse (RAM) IgG (H+L) covalently linked to the carboxymethyldextran matrix. Soluble ADAM17 (analyte) at concentrations ranging from 400 to 12.5 nM obtained by a two fold dilution scheme (assuming a molecular weight of 52 kDa) was injected onto the surface at a flow rate of 30 μl/min in a 120 s pulse (association) plus an extra 180 s delay for the dissociation phase measurement. The RAM surface was regenerated using NaOH 30 mM, NaCl 150 mM and 10 mM Glycine, HCl pH 1.5 buffer solutions. Curves obtained at each concentration were double referenced by first subtracting the signal from the reference FC1 surface (RAM without any mouse anti-TACE mAb) followed by subtraction of the signal obtained from a running buffer injection (Biacore HBS-EP buffer).
Data were processed using BIAevaluation 3.1 software using the 1:1 Langmuir model. The suitability of the fit was measured by the values of the Refractive Index (RI) which have to tend to zero and the κ² value.
Background: Surface plasmon resonance follows binding to a sensor surface in real time, without labels.

Another test concerns the target T2, rhADAM10 (human, UniProt O14672).
T2 construct: also called recombinant human ADAM10 (AD936, R&D Systems)
T2 sequence (recombinant ADAM10 polypeptide, looked up): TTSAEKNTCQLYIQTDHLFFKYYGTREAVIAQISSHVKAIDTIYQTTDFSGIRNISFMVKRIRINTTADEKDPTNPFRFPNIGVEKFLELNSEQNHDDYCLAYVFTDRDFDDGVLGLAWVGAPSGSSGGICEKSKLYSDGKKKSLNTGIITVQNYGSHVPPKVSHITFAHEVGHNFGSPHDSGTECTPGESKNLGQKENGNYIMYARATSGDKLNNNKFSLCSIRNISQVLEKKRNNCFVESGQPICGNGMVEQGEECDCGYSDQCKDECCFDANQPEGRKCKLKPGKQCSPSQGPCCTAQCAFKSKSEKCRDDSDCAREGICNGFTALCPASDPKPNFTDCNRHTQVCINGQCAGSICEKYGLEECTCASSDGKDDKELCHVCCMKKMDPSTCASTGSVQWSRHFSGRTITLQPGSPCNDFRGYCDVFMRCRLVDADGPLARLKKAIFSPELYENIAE
The test can be described thus: ELISA on coated rhADAM10 (2.5 µg/ml), OD 450 nm. The protocol:
The binding of 1022C3 to human ADAM17 and ADAM10 was determined by ELISA in comparison to the anti human ADAM10 antibody AB936 (R&D Systems). A ninety six well ELISA plate was coated with 100 μl/well of recombinant human (rh)ADAM17 (930-ADB, R&D Systems) at a concentration of 1 μg/ml or rhADAM10 (AD936, R&D Systems) at a concentration of 2.5 μg/ml in PBS. The coating solution was incubated overnight at 4° C. The plates were then blocked with PBS containing 0.5% gelatin (#22151, Serva Electrophoresis GmbH, Heidelberg, Germany) for 2 h at 37° C. The saturation buffer discarded by flicking plates, 100 μl of 1022C3 at a concentration of 1 μg/ml in PBS or 5 μg/ml of anti human ADAM10 polyclonal (AB936, R&D Systems) was added to the ELISA plates and incubated for 1 h at 37° C. After three washes, 100 μl horseradish peroxidase-conjugated anti human (A7164, Sigma) or anti goat (115-035-164, Jackson ImmunoResearch Europe Ltd) antibody solution diluted 1/5000 in PBS were incubated for 1 h at 37° C. After three washes, 100 μl/well TMB substrate (#UP664782, Uptima, Interchim, France) was added. After a 10 min incubation time at room temperature, the reaction was stopped using 1 M sulphuric acid and the optical density at 450 nm was measured (FIG. 7).
In general terms: In an ELISA, binding on a coated surface is turned into a signal by an enzyme label.

The target in test [6] is T3, human ADAM17 H1-474 (P-C) human Fc fusion (human, UniProt P78536 18-474).
T3 construct: Range as printed; not shown: human Fc domain at the C-terminus
The test can be described thus: SPR (Biacore X100), about 700 RU m1022C3 captured, analyte 250 nM, FC2-FC1. The protocol: (§1) The experiment was performed on a Biacore X100 device. The 1022C3 is used as the ligand and the ADAM17 fragments and chimeric constructs are used as the analyte. The experiment is run at 10 μl/min at 25° C. on a rabbit anti-mouse polyclonal antibody (Mouse antibody capture kit, BR-1008-38, GE Healthcare) covalently linked to the matrix of both flowcells of a CM5 sensorchip (BR-1000-12) using the amine coupling kit (BR-1000-50, GE Healthcare), using the HBS-EP+ buffer (BR-1008-26, GE Healthcare) as the running buffer. This buffer is also used for the dilutions of the ligand and the analytes.
(§2) A solution of the 1022C3 at the concentration of 15 μg/ml is injected on the second flowcell (working surface) during 1 minute. At each cycle, one of the ADAM17 chimeric constructions (with a human Fc domain at the c-terminal positions) is injected at the concentration of 250 nM during 3 minutes on both flow cells: the reference without any 1022C3 (FC1) and the working cell with around 700 RU of m1022C3 (FC2). The registered signal corresponds to the difference between FC2 and FC1 responses.

Test [7] deals with T4, human ADAM17 H475-563 (D) human Fc fusion (human, UniProt P78536 475-563).
T4 construct: not shown: human Fc domain at the C-terminus
Described as above. The protocol:
as §1, §2

Test [8] deals with T5, human ADAM17 H475-602 (D-MPD (Nter)) human Fc fusion (human, UniProt P78536 475-602).
T5 construct: not shown: human Fc domain at the C-terminus
Described as above. The protocol: as §1, §2

Test [9] has as its target T6, human ADAM17 H223-563 (C-D) human Fc fusion (human, UniProt P78536 223-563).
T6 construct: not shown: human Fc domain at the C-terminus
The test is described as above. The protocol: as §1, §2

Test [10] deals with T7, human ADAM17 H223-602 (C-D MPD (Nter)) human Fc fusion (human, UniProt P78536 223-602).
T7 construct: not shown: human Fc domain at the C-terminus
The test is described as above. The protocol: as §1, §2

Test [11] addresses T8, human ADAM17 H603-671 (MPD (Cter)) human Fc fusion (human, UniProt P78536 603-671).
T8 construct: not shown: human Fc domain at the C-terminus
The description is as above. The protocol: as §1, §2

Sequence of soluble ADAM17 (extracellular domain of ADAM-17) (P78536 215-671): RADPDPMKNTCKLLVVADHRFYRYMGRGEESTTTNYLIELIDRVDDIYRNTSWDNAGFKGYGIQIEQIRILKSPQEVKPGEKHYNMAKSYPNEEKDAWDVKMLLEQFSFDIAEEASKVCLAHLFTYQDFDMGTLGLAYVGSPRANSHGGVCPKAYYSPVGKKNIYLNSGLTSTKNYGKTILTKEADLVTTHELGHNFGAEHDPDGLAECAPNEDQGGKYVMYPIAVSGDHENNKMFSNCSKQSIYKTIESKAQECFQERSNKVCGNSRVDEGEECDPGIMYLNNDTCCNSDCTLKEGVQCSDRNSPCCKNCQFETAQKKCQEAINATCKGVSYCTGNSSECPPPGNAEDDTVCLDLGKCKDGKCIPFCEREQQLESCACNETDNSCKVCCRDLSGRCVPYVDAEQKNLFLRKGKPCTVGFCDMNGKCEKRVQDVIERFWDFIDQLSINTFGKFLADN
T1 sequence (P78536 215-824 limits assumed): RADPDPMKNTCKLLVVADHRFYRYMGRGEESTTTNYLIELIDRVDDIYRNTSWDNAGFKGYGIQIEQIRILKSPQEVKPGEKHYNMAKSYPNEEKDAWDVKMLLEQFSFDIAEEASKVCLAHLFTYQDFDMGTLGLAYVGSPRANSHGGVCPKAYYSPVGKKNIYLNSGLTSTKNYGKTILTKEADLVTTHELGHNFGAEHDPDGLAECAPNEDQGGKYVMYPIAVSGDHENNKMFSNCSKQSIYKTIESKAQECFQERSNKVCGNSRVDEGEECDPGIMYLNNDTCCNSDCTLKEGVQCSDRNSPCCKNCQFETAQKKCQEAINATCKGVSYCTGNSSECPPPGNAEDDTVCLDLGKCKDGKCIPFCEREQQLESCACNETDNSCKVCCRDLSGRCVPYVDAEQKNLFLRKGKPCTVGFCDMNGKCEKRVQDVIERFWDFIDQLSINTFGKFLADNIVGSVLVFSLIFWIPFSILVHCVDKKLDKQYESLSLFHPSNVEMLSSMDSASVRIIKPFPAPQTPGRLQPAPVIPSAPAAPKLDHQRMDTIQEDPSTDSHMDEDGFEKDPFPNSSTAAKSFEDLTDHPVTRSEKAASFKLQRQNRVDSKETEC
T3 sequence (P78536 18-474): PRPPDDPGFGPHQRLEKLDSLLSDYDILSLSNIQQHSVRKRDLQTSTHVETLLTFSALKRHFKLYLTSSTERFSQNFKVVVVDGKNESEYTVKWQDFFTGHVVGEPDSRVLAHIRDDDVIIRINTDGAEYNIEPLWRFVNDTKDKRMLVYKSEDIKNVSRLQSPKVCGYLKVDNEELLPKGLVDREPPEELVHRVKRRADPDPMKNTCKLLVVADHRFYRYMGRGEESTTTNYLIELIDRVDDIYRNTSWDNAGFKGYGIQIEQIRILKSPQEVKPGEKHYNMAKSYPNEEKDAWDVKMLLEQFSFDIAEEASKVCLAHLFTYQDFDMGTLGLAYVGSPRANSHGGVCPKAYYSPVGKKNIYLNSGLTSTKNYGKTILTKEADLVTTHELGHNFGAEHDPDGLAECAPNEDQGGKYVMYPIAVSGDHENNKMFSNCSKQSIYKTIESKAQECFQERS
T4 sequence (P78536 475-563): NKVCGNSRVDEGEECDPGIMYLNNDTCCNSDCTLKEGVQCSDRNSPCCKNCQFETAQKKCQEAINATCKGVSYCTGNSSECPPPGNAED
T8 sequence (P78536 603-671): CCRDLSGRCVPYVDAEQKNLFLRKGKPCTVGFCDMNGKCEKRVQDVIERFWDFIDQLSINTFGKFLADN
Sequence of murine ADAM17 M1-671 (p-c-d-mpd) human Fc fusion (murine; human) (Q9Z0F8 18-671 limits assumed, form in doubt): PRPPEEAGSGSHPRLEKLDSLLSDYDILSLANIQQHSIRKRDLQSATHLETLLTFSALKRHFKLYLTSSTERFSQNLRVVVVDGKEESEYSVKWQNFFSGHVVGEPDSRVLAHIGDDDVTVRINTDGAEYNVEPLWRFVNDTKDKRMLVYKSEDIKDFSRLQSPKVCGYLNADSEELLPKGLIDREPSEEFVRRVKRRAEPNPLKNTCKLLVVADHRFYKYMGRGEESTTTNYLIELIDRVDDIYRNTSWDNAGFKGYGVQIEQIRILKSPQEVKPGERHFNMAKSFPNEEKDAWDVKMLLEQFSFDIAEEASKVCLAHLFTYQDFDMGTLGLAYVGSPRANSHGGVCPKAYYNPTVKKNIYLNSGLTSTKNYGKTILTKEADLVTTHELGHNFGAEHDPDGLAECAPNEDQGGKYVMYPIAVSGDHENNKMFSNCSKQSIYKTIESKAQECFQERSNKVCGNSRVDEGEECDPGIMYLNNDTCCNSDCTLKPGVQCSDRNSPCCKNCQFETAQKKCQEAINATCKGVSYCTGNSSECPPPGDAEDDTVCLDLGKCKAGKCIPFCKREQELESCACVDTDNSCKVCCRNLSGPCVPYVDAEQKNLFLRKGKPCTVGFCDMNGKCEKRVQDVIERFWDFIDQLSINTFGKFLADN
Sequence of murine/human chimeric ADAM17 M1-602H603-671 (p-c-d-mpd (Nter)-MPD (Cter)) human Fc fusion (murine; human) (Q9Z0F8 other isoform, or with tags, fused parts or gaps mutant limits assumed, form in doubt): as the sequence (Q9Z0F8 18-671 limits assumed, form in doubt) above, with N589D, P593R counted along it
T7 sequence (P78536 223-602): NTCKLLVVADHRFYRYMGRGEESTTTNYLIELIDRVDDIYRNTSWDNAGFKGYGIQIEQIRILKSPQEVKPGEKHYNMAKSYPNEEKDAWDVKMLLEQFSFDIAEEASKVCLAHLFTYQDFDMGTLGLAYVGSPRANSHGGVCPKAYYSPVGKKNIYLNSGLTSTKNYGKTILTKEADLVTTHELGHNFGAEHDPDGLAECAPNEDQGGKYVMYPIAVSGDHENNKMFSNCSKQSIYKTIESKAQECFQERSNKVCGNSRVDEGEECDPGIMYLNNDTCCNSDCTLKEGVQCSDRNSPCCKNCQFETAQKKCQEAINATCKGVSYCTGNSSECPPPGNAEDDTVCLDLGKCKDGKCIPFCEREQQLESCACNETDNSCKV
T6 sequence (P78536 223-563): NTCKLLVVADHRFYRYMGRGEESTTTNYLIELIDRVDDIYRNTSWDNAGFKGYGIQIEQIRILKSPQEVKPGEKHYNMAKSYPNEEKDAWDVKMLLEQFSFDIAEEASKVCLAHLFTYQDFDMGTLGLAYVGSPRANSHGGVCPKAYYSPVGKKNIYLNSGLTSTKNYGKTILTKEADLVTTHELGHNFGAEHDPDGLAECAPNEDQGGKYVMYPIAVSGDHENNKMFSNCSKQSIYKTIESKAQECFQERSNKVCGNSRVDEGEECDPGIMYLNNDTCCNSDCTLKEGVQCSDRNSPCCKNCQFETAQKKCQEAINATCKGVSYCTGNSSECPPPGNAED
T5 sequence (P78536 475-602): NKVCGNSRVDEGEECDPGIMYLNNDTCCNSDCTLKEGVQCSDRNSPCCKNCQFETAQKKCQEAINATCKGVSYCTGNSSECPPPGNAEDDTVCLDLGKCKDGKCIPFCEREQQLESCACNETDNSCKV

B1: enzymatically deglycosylated 1022C3 (antibody, V domains shown)
VH: QVTLKESGPGILQPSQTLSLTCSFSGFSLDTSGMGVSWIRQPSGKGLEWLAHIYWDDDKRYNPSLKSRLTISKDTSSNQVFLKITSLDTADTATYYCARRSHFGNYYYAMDYWGQGTSVTVTS
VL: DVQMTQTTSSLSASLGDRVTISCRASQDISSYLNWYQQKPDGTFKLLIFYTSRLQSGVPSKYSGSGSGTDYSLTISNLEQEDIAAYFCQQGKTLPLTFGAGTKLELK
notes: also called 1022C3 enzymatically deglycosylated
For the molecule B1, the “EC50 (read off the curve)” value in test [1] was approximately 0.5 nM.

B2: murine monoclonal antibody 1022C3 (antibody, V domains shown)
VH: QVTLKESGPGILQPSQTLSLTCSFSGFSLNTSGMGVSWIRQPSGKGLEWLAHIYWDDDKRYNPSLKSRLTISKDTSSNQVFLKITSLDTADTATYYCARRSHFGNYYYAMDYWGQGTSVTVTS
VL: DVQMTQTTSSLSASLGDRVTISCRASQDISSYLNWYQQKPDGTFKLLIFYTSRLQSGVPSKYSGSGSGTDYSLTISNLEQEDIAAYFCQQGKTLPLTFGAGTKLELK
modifications: N-glycosylated asparagine in CDR-H1
notes: Murine IgG from hybridoma I-4686, captured by anti-mouse antibody in the SPR assays; also called m1022C3; mAb 1022C3
B2: the response (RU) is less than 10 RU in test [2]; less than 10 RU in test [3]; 90 to 140 RU in test [4]; less than 10 RU in test [6]; less than 10 RU in test [7]; less than 10 RU in test [8]. For the same molecule, the “response (RU)” value in [9], in [10] and in test [11] was less than 10 RU each time. The molecule also displayed a Kd in test [5] of 1.27 nM. For the same molecule, in test [5], the dissociation rate constant (koff) stood at 0.00036 s⁻¹. In test [5], this molecule came in with a kon of 284000 M⁻¹ s⁻¹. Also, the “EC50 (read off the curve)” value in test [1] was approximately 0.5 nM. In addition, the binding result with rhADAM10 is recorded as “no binding (tested: 1 µg/ml)”.
